# B1: p45 Metalloprotease: metalloprotease purified from Fusarium oxysporum DSM 2672 broth, 45 kDa band; also produced recombinantly in A. oryzae (protein)
# chain: MRFSDSLLLIGLSSLAGAHPSRRAPNPSPLSKRGLDLEAFKLPPMAEYVPQDEVPDDVSAKVVTKRADYTETAKDLVKSTFPKATFRMVTDHYVGSNGIAHVNFKQTVNGIDIDNADFNVNIGADGEVFSYGNSFYEGKIPGPLTKRDEKDPVDALKDTVDVLSLPVEADKAKAEKKSKNHYTFTGTKGTVSKPEAKLTYLVDENKELKLTWRVETDIVDNWLLTYVNAAKTDEVVGVVDYVNEATYKVYPWGVNDPSKGSRSTVENPWNLAASEFTWLSDGSNNYTTTRGNNGIAQVNPSGGSTYLNNYRPDSPSLKFEYDYSTSTTTPTTYRDASIAQLFYTANKYHDLLYLLGFTEQAGNFQTNNNGQGGVGNDMVILNAQDGSGTNNANFATPADGQPGRMRMYLWTYSTPQRDCSFDAGVVIHEYTHGLSNRLTGGPANSGCLPGGESGGMGEGWGDFMATAIHIQSKDTRASNKVMGDWVYNNAAGIRAYPYSTSLTTNPYTYKSVNSLSGVHAIGTYWATVLYEVMWNLIDKHGKNDADEPKFNNGVPTDGKYLAMKLVVDGMSLQPCNPNMVQARDAIIDADTALTKGANKCEIWKGFAKRGLGTGAKYSASSRTESFALPSGC
# What was measured:
# [1] = tested on: Ac-Pro-Leu-Gly[2-mercapto-4-methyl-pentanoyl]-Leu-Gly-OEt; test: Hydrolysis of the thermolytic merc-peptide substrate (Ellman's reagent, 405 nm); format: biochemical
# Protocol: The thermolytic substrate Ac-Pro-Leu-Gly[2-mercapto-4-methyl-pentanoyl]-Leu-Gly-OEt (i.e. the merc-peptide) is also used to further characterize the p45 metalloprotease and B.t. thermolysin.
# Reaction mixtures contain 100 microliters of Ac-Pro-Leu-Gly[2-mercapto-4-methyl-pentanoyl]-Leu-Gly-OEt (1 mM, and 1 mM Ellman's reagent) and 100 microliters of either B.t. thermolysin or purified p45 metalloprotease (0-3 ug/ml) in sample buffer.
# succinylated casein = test: Casein hydrolysis, succinylated casein assay (QuantiCleave, BCA, 600 nm); format: biochemical
# Protocol: 400 ul of casein solution (Pierce) is added to small test tubes along with 100 ul of protease. The tubes are vortexed and incubated at room temperature for 40 minutes. The incubation (and assay) buffer is 0.1 M borate, 2 mM CaCl2, and 10 mM dimethylglutarate, pH 6.5. At the end of the incubation, 60 microliters of trichloroacetic acid (100% w/v) is added, and the tubes are vortexed and centrifuged for 1 minute at 5000×g. 20 microliters of the resulting supernatant is placed into a microtiter plate well with 200 microliters of the BCA working reagent (Pierce). The plates are then vortexed and incubated another 30 minutes, then read at 600 nm using a Biomek 1000 microtiter plate reader.
# 400 microliters of casein solution (Pierce) are added to small test tubes along with 100 microliters of protease in buffer "A" (0.1M borate, 2 mM CaCl2 and 10 mM dimethylglutaric acid). At the end of the incubation, 60 microliters of trichloroacetic acid (100% w/v) is added, and the tubes are vortexed and centrifuged for 1 minute at 5000×g. 20 microliters of the resulting supernatant is placed into a microtiter plate well with 200 microliters of the BCA working reagent (Pierce). The plates are then vortexed and incubated another 30 minutes, then read at 600 nm using a Biomek 1000 microtiter plate reader.
# [2] = tested on: pro-trypsin-like Fusarium oxysporum protease; test: Proteolytic enzyme assay: tryptic activity released from pro-trypsin-like protease, L-BAPNA, 405 nm; format: biochemical
# Protocol: Metalloprotease activity is measured as released trypsin activity from pro-trypsin-like Fusarium oxysporum protease deposited at the Deutsche Sammlung von Mikroorganismen, Gottingen, Germany under the number DSM 2672, after a 30-60 min pre-incubation at 25° C. in 0.1M Tris, 2 mM CaCl2, pH 7 (at lower pH, 100 mM borate, 10 mM DMG, 2 mM CaCl2 is used).
# Metalloproteases contain a catalytic zinc metal center which participates in the hydrolysis of the peptide backbone. The active zinc center differentiates these proteases from calpains whose activities are dependent upon the presence of calcium. Confirmation of a protease as a metallo-protease is loss of proteolytic activity accomplished by removal of the zinc center with 1,10-phenanthroline (1 mM) followed by titration with Zn^2+ (0.1-100 μM) to restore full activity.
# However, when combined the metalloprotease cleaves recombinant pro-trypsin-like Fusarium oxysporum protease disclosed, supra to yield the active tryptic protease. Metalloprotease activity is halted upon the addition of 1 mM 1,10-phenanthroline (Table 1).
# [3] = tested on: FAGLA: N-(3-[2-Furyl]Acryloyl)-Gly-Leu amide; test: FAGLA hydrolysis (345 nm); format: biochemical
# Protocol: The thermolytic substrate FAGLA: N-(3-[2-Furyl]Acryloyl)-Gly-Leu amide is used to further characterize the p45 metalloprotease and B.t. thermolysin. Reaction mixtures contain 100 microliters of N-(3-[2-Furyl]Acryloyl)-Gly-Leu amide (FAGLA) (2 mM) and 100 microliters of various concentrations of either thermolysin (Boehringer Mannheim) or purified p45 metalloprotease. Thermolytic activity is determined as a decrease in absorbance at 345 nm on the recording spectrometer for one minute(Shimadzu, UV160U). The linear range of the assay for thermolysin is 10-500 ug/ml thermolysin in the assay mix.
# FTC-labeled casein [4] = test: pH profile, FTC-casein hydrolysis; format: biochemical
# Protocol: Purified p45 metalloprotease (10 microliters, 0.005 mg/ml) is added to 30 microliters of Universal pH buffer (pH 5-11.5), and 20 microliters of FTC-labeled casein are incubated at 37° C. for 1-hour. 150 microliters of 5% TCA is added to acidify and precipitate casein (1-hour at room temperature). […] Samples are then analyzed on the fluorimeter (slit width=2.5 nm; excitation freq.=490 nm; emission freq.=525 nm; integration time=2 sec).
# [5] = tested on: pro-trypsin-like F. oxysporum protease; test: Second pH profile, pro-trypsin-like F. oxysporum protease assay; format: biochemical, Fusarium oxysporum; settings: 15 minutes, room temperature
# Protocol: A second pH profile is determined utilizing the pro-trypsin-like F. oxysporum protease assay whereby p45 metalloprotease activity is determined based on the processing of pro-trypsin-like F. oxysporum protease to active trypsin-like F. oxysporum protease Reaction mixtures contain 125 ug of purified pro-trypsin-like F. oxysporum protease and 0.13 ug of purified p45 metalloprotease (i.e. a molar ratio of pro-trypsin-likeF. oxysporum protease/ p45=1750:1) are added to "universal-buffer" solutions prepared at different pH's (i.e. pH values of 2.72, 4.11, 5.2, 6.05, 6.46, 6.98, 8.18, 9.02, 10.03, and 11.01) and the reaction mixtures are incubated for 15 minutes at room temperature. After incubation, 5 microliters are taken from each sample and added to microtiter wells containing 90 microliters of sample buffer (i.e. 0.1M borate, 2 mM CaCl2, and 10 mM DMG, pH 6.5), and 10 microliters of phosphoramidon (20 ug). […] Phosphoramidon is added to inhibit p45 activity and stop any further maturation of pro-trypsin-like F. oxysporum protease.
# [6] = tested on: pro-trypsin-like F. oxysporum protease; test: p45 metalloprotease pH stability; format: biochemical, Fusarium oxysporum; settings: 20 minutes pre-incubation at room temperature
# Protocol: To determine the pH stability of the recombinant p45 metalloprotease, the partially-purified p45 metalloprotease is diluted 10-fold into universal buffers at pH's of 3.5,4,4.5, 5.2, 5.64, 6, 7, 8, 9, and 10 and pre-incubated at room temperature for 20 minutes. The pre-incubated samples (10 microliters) are added to 40 microliters of buffer containing 0.1M borate, 2 mM CaCl2, and 10 mM dimethylglutarate, pH 6.5 and 50 microliters of crude A. oryzae broth containing pro-trypsin-like F. oxysporum protease and subsequently incubated another 30 minutes.
# FTC-labeled casein [7] = test: Protease analysis using FTC-labeled casein; format: biochemical
# Protocol: Samples are incubated at room temperature for 30 minutes.
# [8] = tested on: pro-trypsin-like F. oxysporum protease; test: Processing of pro-trypsin-like F. oxysporum protease to active trypsin-like protease
# Protocol: Activatable pro-trypsin-like F. oxysporum protease is determined in microtiter wells as released trypsin-like F. oxysporum protease (tryptic) activity from pro-trypsin-like F. oxysporum protease after a 40 minute pre-incubation at room temperature with purified Fusarium oxysporum metalloprotease (approximately 6 ug).
# Processed pro-trypsin-like F. oxysporum protease(i.e. mature trypsin-like F. oxysporum protease) activity is determined directly from microtiter plates containing the pre-incubated metalloprotease/pro-trypsin-like F. oxysporum protease cocktail (total volume=100 microliters), and 100 microliters of substrate (87 mg/ml.L-BAPNA stock in DMSO diluted 50-fold in sample buffer). Again, active trypsin-like F. oxysporum protease is determined as an increase in absorbance at 405 nm immediately after L-BAPNA addition.
# Purified pro-trypsin-like F. oxysporum protease is added to fresh A. oryzae fermentation broths containing the recombinant p45 metalloprotease (approximately 90 mg/L) and incubated for either 1, 2, or 3 hours at room temperature. Levels of pro-trypsin-like F. oxysporum protease in the incubation mixtures range from 100 ug/ml to 13 mg/ml.
# Purified pro-trypsin-like F. oxysporum protease (100 ug/ml) is added to various amounts of either purified recombinant p45 metalloprotease or purified B.s. metalloprotease.
molecule,measurement,setting,value
B1,"Specific Activity, substrate merc-peptide",[1],57 AU/min*mg
same,effectiveness at hydrolyzing the mercapto-peptide relative to B.s. thermolysin,[1],about 25 fold
same,"Specific Activity, substrate Succinylated Casein (maximal level)",succinylated casein,0.30 O.D.
same,"maximum absorbance, casein hydrolysis","succinylated casein; pH 6.5, room temperature, 40 minutes, FIG. 8",around 0.3 O.D. units
same,maximum absorbance / maximal hydrolyzed casein relative to the other proteases,"succinylated casein; relative to thermolysin, dispase, B.s. neutral metalloprotease, listed as p45",about 60%
same,specific activity relative to the conventional Bacillus metalloprotease,"[2]; based on absorbance at 280 nm, preparative IEF fraction, FIG. 2",about 10 fold
same,tryptic activity of the sample alone,[2]; sample alone,do not contain any tryptic activity
same,Tryptic Activity,"[2]; without 1,10-phenanthroline, without Zn2+",1.33 Δ Abs/min × 10^-4
same,"Specific Activity, substrate FAGLA",[3],0.76 -AU/sec*mg
same,"specific activity for FAGLA, times lower than that of thermolysin",[3],approximately 250 times
same,pH at which the protease functions optimally,FTC-labeled casein [4],~9.5
same,optimum pH for hydrolysis of FTC-casein,"FTC-labeled casein [4]; universal pH buffers pH 5-11.5, 37° C., 1 hour, FIG. 10",9.5
same,level of processed pro-trypsin-like protease at pH 6.5 relative to the level at pH 9,[5],approximately 24%
same,pH of maximum levels of processed pro-trypsin-like protease,[5]; molar ratio pro-trypsin/p45 1750:1,9.5
same,acceptable pH range (stability),[6],6.5-9
same,pH at which most stable,[6]; pH 3.5-10,8
same,"Specific Activity, substrate FTC-Labelled Casein",FTC-labeled casein [7],170 FU/min*mg
same,FTC-casein hydrolysis relative to trypsin-like F. oxysporum protease,FTC-labeled casein [7]; on a molar basis at pH 9,approximately 16 fold
same,"Specific Activity, substrate pro-trypsin",[8],1.2 g trypsin/min*mg
same,share of activatable pro-trypsin-like protease processed,"[8]; A. oryzae broth with approx. 90 mg/L recombinant p45, pro-trypsin 100 ug/ml to 13 mg/ml, room temperature, within 1 hour",80-100%
same,moles of pro-trypsin-like protease processed per mole of metalloprotease,"[8]; pro-trypsin-like protease 100 ug/ml, within 1 hr.",about 50 moles
